Measurements taken from PMC8548206, “Single-domain antibody screening by isPLA-seq” (Life Science Alliance, 2021).

B1: anti-SQSTM1 sdAb #19 (Flag-tagged, sdAb library) (VHH)
VHH: QVQLVESGGGSVQAGGSLRLSCTASGGSEYSYSTFSLGWFRQAPGQEREAVAAIASMGGLTYYADSVKGRFTISRDNAKNTVTLQMNNLKPEDTAIYYCAARQAPFGSRCSISSSPKGRYPSWGQGTQVTVSS
notes: 21-aa CDR3 in place of the CDR3 of cAbBCII10; source: HEK293T, transfected (sdAb library in pcDNA3.1), in fixed cells; not shown: 3x Flag, C-terminal, kept
B2: anti-SQSTM1 sdAb #3 (Flag-tagged, sdAb library) (VHH)
VHH: QVQLVESGGGSVQAGGSLRLSCTASGGSEYSYSTFSLGWFRQAPGQEREAVAAIASMGGLTYYADSVKGRFTISRDNAKNTVTLQMNNLKPEDTAIYYCAARVRTSPRSAVADGSAYRSESAWGQGTQVTVSS
notes: as for B1
B3: anti-SQSTM1 sdAb #24 (Flag-tagged, sdAb library) (VHH)
VHH: QVQLVESGGGSVQAGGSLRLSCTASGGSEYSYSTFSLGWFRQAPGQEREAVAAIASMGGLTYYADSVKGRFTISRDNAKNTVTLQMNNLKPEDTAIYYCAAVRTPVILRCFQSGIFYLVGEVWGQGTQVTVSS
notes: as for B1
B4: anti-SQSTM1 sdAb #18 (Flag-tagged, sdAb library) (VHH)
VHH: QVQLVESGGGSVQAGGSLRLSCTASGGSEYSYSTFSLGWFRQAPGQEREAVAAIASMGGLTYYADSVKGRFTISRDNAKNTVTLQMNNLKPEDTAIYYCAAGIGYAGDCRAHTIATRRFSVGWGQGTQVTVSS
notes: as for B1
B5: anti-SQSTM1 sdAb #5 (Flag-tagged, sdAb library) (VHH)
VHH: QVQLVESGGGSVQAGGSLRLSCTASGGSEYSYSTFSLGWFRQAPGQEREAVAAIASMGGLTYYADSVKGRFTISRDNAKNTVTLQMNNLKPEDTAIYYCAAYDRVGGGHVLIACYSDDLCMGWGQGTQVTVSS
notes: as for B1
B6: anti-SQSTM1 sdAb #25 (Flag-tagged, sdAb library) (VHH)
VHH: QVQLVESGGGSVQAGGSLRLSCTASGGSEYSYSTFSLGWFRQAPGQEREAVAAIASMGGLTYYADSVKGRFTISRDNAKNTVTLQMNNLKPEDTAIYYCAAPGDGQEVIFAFVQRSTRAWPVWGQGTQVTVSS
notes: as for B1
B7: anti-SQSTM1 sdAb #12 (Flag-tagged, sdAb library) (VHH)
VHH: QVQLVESGGGSVQAGGSLRLSCTASGGSEYSYSTFSLGWFRQAPGQEREAVAAIASMGGLTYYADSVKGRFTISRDNAKNTVTLQMNNLKPEDTAIYYCAADQVRDHSWCNLFRTLRVCVLIWGQGTQVTVSS
notes: as for B1
B8: anti-SQSTM1 sdAb #15 (Flag-tagged, sdAb library) (VHH)
VHH: QVQLVESGGGSVQAGGSLRLSCTASGGSEYSYSTFSLGWFRQAPGQEREAVAAIASMGGLTYYADSVKGRFTISRDNAKNTVTLQMNNLKPEDTAIYYCAALRWSWFPSGSTANLSLGIGCTWGQGTQVTVSS
notes: as for B1
B9: anti-SQSTM1 sdAb #2 (Flag-tagged, sdAb library) (VHH)
VHH: QVQLVESGGGSVQAGGSLRLSCTASGGSEYSYSTFSLGWFRQAPGQEREAVAAIASMGGLTYYADSVKGRFTISRDNAKNTVTLQMNNLKPEDTAIYYCAARAGVCGVVGSFSMYTIGNWVYWGQGTQVTVSS
notes: 21-aa CDR3 in place of the CDR3 of cAbBCII10; also called clone #2; source: HEK293T, transfected (sdAb library in pcDNA3.1), in fixed cells; not shown: 3x Flag, C-terminal, kept
B10: anti-SQSTM1 sdAb #17 (Flag-tagged, sdAb library) (VHH)
VHH: QVQLVESGGGSVQAGGSLRLSCTASGGSEYSYSTFSLGWFRQAPGQEREAVAAIASMGGLTYYADSVKGRFTISRDNAKNTVTLQMNNLKPEDTAIYYCAAAVESCDGFRTGRTVPYREVTYWGQGTQVTVSS
notes: as for B1
B11: anti-SQSTM1 sdAb #22 (Flag-tagged, sdAb library) (VHH)
VHH: QVQLVESGGGSVQAGGSLRLSCTASGGSEYSYSTFSLGWFRQAPGQEREAVAAIASMGGLTYYADSVKGRFTISRDNAKNTVTLQMNNLKPEDTAIYYCAAACELDAVRLWPDFVRPAVFSIWGQGTQVTVSS
notes: as for B1
B12: anti-SQSTM1 sdAb #21 (Flag-tagged, sdAb library) (VHH)
VHH: QVQLVESGGGSVQAGGSLRLSCTASGGSEYSYSTFSLGWFRQAPGQEREAVAAIASMGGLTYYADSVKGRFTISRDNAKNTVTLQMNNLKPEDTAIYYCAADLWAPLMVCSGGLTQMLSNSDWGQGTQVTVSS
notes: as for B1
B13: anti-SQSTM1 sdAb #26 (Flag-tagged, sdAb library) (VHH)
VHH: QVQLVESGGGSVQAGGSLRLSCTASGGSEYSYSTFSLGWFRQAPGQEREAVAAIASMGGLTYYADSVKGRFTISRDNAKNTVTLQMNNLKPEDTAIYYCAAFPSRLKCTRGCGCRTFNFPALWGQGTQVTVSS
notes: as for B1
B14: anti-SQSTM1 sdAb #27 (Flag-tagged, sdAb library) (VHH)
VHH: QVQLVESGGGSVQAGGSLRLSCTASGGSEYSYSTFSLGWFRQAPGQEREAVAAIASMGGLTYYADSVKGRFTISRDNAKNTVTLQMNNLKPEDTAIYYCAAIIAELCSGLPCTSFLRTPCPVWGQGTQVTVSS
notes: as for B1
B15: anti-SQSTM1 sdAb #23 (Flag-tagged, sdAb library) (VHH)
VHH: QVQLVESGGGSVQAGGSLRLSCTASGGSEYSYSTFSLGWFRQAPGQEREAVAAIASMGGLTYYADSVKGRFTISRDNAKNTVTLQMNNLKPEDTAIYYCAARRGFVRHTKIKLLDYALTEVRWGQGTQVTVSS
notes: as for B1
B16: anti-SQSTM1 sdAb #14 (Flag-tagged, sdAb library) (VHH)
VHH: QVQLVESGGGSVQAGGSLRLSCTASGGSEYSYSTFSLGWFRQAPGQEREAVAAIASMGGLTYYADSVKGRFTISRDNAKNTVTLQMNNLKPEDTAIYYCAAGGNTVKVSNIFEVSSSVRVRLWGQGTQVTVSS
notes: as for B1
B17: anti-SQSTM1 sdAb #11 (Flag-tagged, sdAb library) (VHH)
VHH: QVQLVESGGGSVQAGGSLRLSCTASGGSEYSYSTFSLGWFRQAPGQEREAVAAIASMGGLTYYADSVKGRFTISRDNAKNTVTLQMNNLKPEDTAIYYCAAARAHFASLCDCQGNRITLLCDWGQGTQVTVSS
notes: as for B1
B18: anti-SQSTM1 sdAb #10 (Flag-tagged, sdAb library) (VHH)
VHH: QVQLVESGGGSVQAGGSLRLSCTASGGSEYSYSTFSLGWFRQAPGQEREAVAAIASMGGLTYYADSVKGRFTISRDNAKNTVTLQMNNLKPEDTAIYYCAAVLHVLSWDRCEYDPAHDLRTAWGQGTQVTVSS
notes: as for B1
B19: anti-SQSTM1 sdAb #16 (Flag-tagged, sdAb library) (VHH)
VHH: QVQLVESGGGSVQAGGSLRLSCTASGGSEYSYSTFSLGWFRQAPGQEREAVAAIASMGGLTYYADSVKGRFTISRDNAKNTVTLQMNNLKPEDTAIYYCAANMAIRVRWVAMFTCGPIGGVGWGQGTQVTVSS
notes: as for B1
B20: anti-SQSTM1 sdAb #13 (Flag-tagged, sdAb library) (VHH)
VHH: QVQLVESGGGSVQAGGSLRLSCTASGGSEYSYSTFSLGWFRQAPGQEREAVAAIASMGGLTYYADSVKGRFTISRDNAKNTVTLQMNNLKPEDTAIYYCAAREPFARYLRKESYPLFRMYSFWGQGTQVTVSS
notes: as for B1
B21: anti-SQSTM1 sdAb #20 (Flag-tagged, sdAb library) (VHH)
VHH: QVQLVESGGGSVQAGGSLRLSCTASGGSEYSYSTFSLGWFRQAPGQEREAVAAIASMGGLTYYADSVKGRFTISRDNAKNTVTLQMNNLKPEDTAIYYCAAPGHGRPWRAATFPVDEGGGSAWGQGTQVTVSS
notes: as for B1
B22: anti-SQSTM1 sdAb #4 (Flag-tagged, sdAb library) (VHH)
VHH: QVQLVESGGGSVQAGGSLRLSCTASGGSEYSYSTFSLGWFRQAPGQEREAVAAIASMGGLTYYADSVKGRFTISRDNAKNTVTLQMNNLKPEDTAIYYCAAAYGNDVQSVAFKYVVGRGYQLWGQGTQVTVSS
notes: as for B1
B23: anti-SQSTM1 sdAb #6 (Flag-tagged, sdAb library) (VHH)
VHH: QVQLVESGGGSVQAGGSLRLSCTASGGSEYSYSTFSLGWFRQAPGQEREAVAAIASMGGLTYYADSVKGRFTISRDNAKNTVTLQMNNLKPEDTAIYYCAALLVIDSSVIARLDGRGRSDRLWGQGTQVTVSS
notes: as for B1

Target: T1, HA-tagged SQSTM1 (Homo sapiens (Human)., UniProt Q13501)
T1 construct: autophagy receptor SQSTM1, full length; the printed limits 1-440 fit the human protein; also called HA-tagged bait; full length; source: HEK293T, transfected, in fixed cells (screen)
Assay: proximity ligation; pooled screen (isPLA-seq): Flag-tagged sdAb library co-transfected with HA-tagged SQSTM1 into HEK293T cells, fixed after 48 h, isPLA with anti-HA and anti-Flag antibodies, positive cells sorted by FACS, three rounds, CDR3 sequenced
Conditions: partners not purified

binding result | Binder
binds | B1
binds | B2
binds | B3
binds | B4
binds | B5
binds | B6
binds | B7
binds | B8
binds | B9
binds | B10
binds | B11
binds | B12
binds | B13
binds | B14
binds | B15
binds | B16
binds | B17
binds | B18
binds | B19
binds | B20
binds | B21
binds | B22
binds | B23
